From patent US20100184837 come the findings set out here.

Series [1] deals with HCV envelope glycoprotein E2 (expressed on CT26-HCV-E2 cells) (Hepatitis C virus) (UniProt P27958). As to the kind of experiment: flow. Particulars: strongest binding among rounds; 8 ug ssDNA with 10^6 cells.
The target in series [2] is GST-E2 (HCV envelope glycoprotein E2) (Hepatitis C virus) (UniProt P27958). The experiment in a line: competition. The settings on record: decreased from 36.7% without aptamer.
Chain of GST-E2 (HCV envelope glycoprotein E2) (Hepatitis C virus) (P27958 384-746): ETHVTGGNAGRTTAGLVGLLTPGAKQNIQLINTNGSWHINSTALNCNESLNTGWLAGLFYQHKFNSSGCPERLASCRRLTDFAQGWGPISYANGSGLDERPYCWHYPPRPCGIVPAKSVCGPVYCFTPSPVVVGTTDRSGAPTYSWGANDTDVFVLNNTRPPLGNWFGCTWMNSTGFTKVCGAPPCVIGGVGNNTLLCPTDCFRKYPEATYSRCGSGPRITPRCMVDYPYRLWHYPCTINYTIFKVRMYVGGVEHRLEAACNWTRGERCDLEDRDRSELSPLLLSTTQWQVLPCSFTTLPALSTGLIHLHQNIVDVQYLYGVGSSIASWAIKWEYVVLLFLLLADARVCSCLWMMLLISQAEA

Chain of HCV envelope glycoprotein E2 (expressed on CT26-HCV-E2 cells) (Hepatitis C virus) (P27958 384-746): as above

“GCGGAATTCTAATACGACTCACTATAGGGAACAGTCCGAGCCNNNNNNNNNNNNNNNNNNNNNNNNNNNNNNGGGTCAATGCGTCATA [13th round ssDNA aptamer library]” yielded a binding (% cells bound) in series [1] of 89. For the same sequence, in series [2], the activity (% E2 binding to Huh 7.5.1 cells) was 23.2.
